B1: 112 (protein)
chain: MAQGKVALEEHFAIPETLQDSAGFVPGDYWKELVHRLLDIQDTRLKLMDAHGIETMILSLNAPAVQAIPDRRKAIEIARRANDVLAEECAKRPDRFLAFAALPLQDPDAATEELQRCVNDLGFVGALVNGFSQEGDGQTPLYYDLPQYRPFWGEVEKLDVPFYLHPRNPLPQDSRIYDGHPWLLGPTWAFAQETAVHALRLMASGLFDEHPRLNIILGHMGEGLPYMMWRIDHRVAWVKLPPRYPAKRRFMDYFNENFHITTSGNFRTQTLIDAILEIGADRILFSTDWPFENIDHASDWFNATSIAEADRVKIGRTNARRLFKLDGA
modifications: Dicamba decarboxylase variant clone: DC.4.113
B2: 113 (protein)
chain: B1 chain with W30L, V34F
modifications: Dicamba decarboxylase variant clone: DC.4.114
B3: 117 (protein)
chain: MAKKPRIDMHSHFFPRISEQEAAKFDANHAPWLQVSAKGDTGSIMMGKNNFRPVYQALWDPAFRIEEMDAQGVDVQVTCATPVMFGYTWEANKAAQWAERMNDFALEFAAHNPQRIKVLAQVPLQDLDLACKEASRAVAAGHLGIQIGNHLGDKDLDDATLEAFLTHCANEDIPILVHPWDMMGGQRMKKWMLPVLVAAPAEVQLAILSLILSGAFERIPKSLKICFAGGGGSFAFLLGIVDLAWRHRDIVREDCPRPPSEYVDRFFVDSLVFNPGALELLVSVMGEDRVMLGSDYPFPTGEQKIGGLVLSSNLGESAKDKIISGNASKFFNINV
modifications: Dicamba decarboxylase variant clone: DC.5.008
B4: 118 (protein)
chain: MAKKPRIDMHSHFFPRISEQEAAKFDANHAPWLQVSAKGDTGSIMMGKNNFQPVYQALWDPAFRIEEMDAQGVDVQVTCATPVMFGYTWEANKAAQWAERMNDFALEFAAHNPQRIKVLAQVPLQDLDLACKEASRAVAAGHLGIQIGNHLGDKDLDDATLEAFLTHCANEDIPILVHGTDMMGGQRMKKWGLPWLVALAAEVQLAILSLILSGAFERIPKSLKICFSHGGGSFAFLLGLVDEAWRHVDIVREDCPRPPSEYVDRFFVDSVGNPGALELLVSVMGEDRVMLGSDYPHTTGEQKIGGLVLSSNLGESAKDKIISGNASKFFNINV
modifications: Dicamba decarboxylase variant clone: DC.5.033
B5: 119 (protein)
chain: B4 chain with T180W, P194Y, L199H, A200H, L237T, L240W, H297L
modifications: Dicamba decarboxylase variant clone:DC.5.034
B6: 121 (protein)
chain: MAIIDCHGHYTTTPKGVEDYRNAQKAAVAKDPSFKGEKGQVVVSDDEIRESIENNQLKMQRERGTDLTIFSPRWDAGGHHIGNEYTSQFWTEHQNDLIRRVCDLFPKNFAPVAQLPQSPGVDPAKSVPEIVRTVEQMGFIGINLNPDPSGGYWKDTSLADRAFYPIYEKMVEYDIPAMIHPRLACNACFHTGLSVGLGADTTGFQQLIMSDVFKDFPSLKIIIPHGGGAVPYHWGRFRGLMQDQGYAPLEESALKNIYFDTCVYHQRGIDLLLDIVPTQNILFASEMIGAVRGIDPETGHNFDDTKRYIDNNTALNAEEKAMIFEGNARRVFSRLKTD
modifications: Dicamba decarboxylase variant clone: DC.12.014
B7: 120 (protein)
chain: MAIIDCHGHYTTTPKGVETYRNAQKAAVAKDPSFKYEKGQVVVSDDEIRESIENNQLKMQRERGTDLTIFSPRSTAGGHHIGNEYTSQFWTEHQNDLIRRVCDLFPKNFAPVAQLPQSPGVDPAKSVPEIVRTVEQMGFIGINLNPDPSGGYWKDTSLADRAFYPIYEKMVEYDIPAMIHPRNACNDCFHTTGSHALGADTTGFQQLIMSDVFKDFPSLKIIIPHGGGAVPYHWGRFRGLMQDQGYAPLEESALKNIYFDTCVYHQRGIDLLLDIVPTQNILFASEMIGAVRGIDAETGHNFDDTKRYIDNNTALNAEEKAMIFEGNARRVFSRLKTD
modifications: Dicamba decarboxylase variant clone: DC.12.002
B8: 95 (protein, listed as Pseudomonas fluorescens)
chain: B3 chain with V195W, A199M, V203T, A228G, G229H, I240R, L243N, L271A, T300L
B9: 100 (protein, listed as Reinekea blandensis)
chain: MAIIDCHGHYTTTPKGVEDYRNAQKAAVAKDPSFKGEKGQVVVSDDEIRESIENNQLKMQRERGTDLTIFSPRASWMGHHIGNEYTSQFWTEHQNDLIRRVCDLFPKNFAPVAQLPQSPGVDPAKSVPEIVRTVEQMGFIGINLNPDPSGGYWKDTSLADRAFYPIYEKMVEYDIPAMIHVSAACNDCFHTTGSHYLGADTTGFQQLIMSDVFKDFPSLKIIIPHGGGAVPYHWGRFRGLMQDQGYAPLEESALKNIYFDTCVYHQRGIDLLLDIVPTQNILFASEMIGAVRGIDPETGHNFDDTKRYIDNNTALNAEEKAMIFEGNARRVFSRLKTD

Positions count from the first letter of the chain named.

The values that follow come from patent publication US20160040149A1, “Compositions Having Dicamba Decarboxylase Activity and Methods of Use” (priority 2013, published 2016).

A short description of the first data set: Dicamba decarboxylase activity / product analysis with purified His-tag protein (14C assay and product detection of Example 1). The format is biochemical. Conditions: computationally designed variants. The procedure:
To obtain purified protein for activity assays, IPTG-induced cells were harvested by centrifugation at 7,000 rpm for 10 mins Cell pellet from 50 mL of cell culture was frozen and thawed twice and then lysed in 8004 lysis buffer consisting of 50 mM potassium phosphate buffer (pH7.0), 50 μM ZnSO4, 5% EG, 50 mM KCl, 1 mM DTT, 0.2 mg/ml lysozyme, 1/200 protease inhibitor cocktail (EMD set3, EDTA free), and 1/2,000 endonuclease. Lysate was then centrifuged at 13,000 rpm for 45 min at 4° C. Supernatant was loaded onto 200 μL Ni-NTA columns pre-equilibrated with 10 mM His Buffer containing 25 mM potassium phosphate buffer pH7, 50 μM ZnSO4, 5% EG, 200 mM KCl, and 10 mM histidine. The columns were let sit at 4° C. until the entire supernatant passed through. Each column was then washed with 200 ul 10 mM His Buffer twice and then 4 times with 800 ul loading buffer consisting of 25 mM potassium phosphate buffer pH7, 50 μM ZnSO4, 5% EG, 200 mM KCl. Protein was eluted with 1504 of Elution Buffer consisting of 25 mM potassium phosphate buffer pH7, 50 μM ZnSO4, 5% EG, 100 mM KCl, 100 mM histidine, 10% glycerol. The protein concentration was measured by Bradford assay. Purified protein was used for dicamba decarboxylase activity measurement as described in Example 1. Enzyme kinetic characterization of selected dicamba decarboxylases was determined through GC/MS measurement of 2,5-DCP or PEPC coupled assay as described in Example 1.
As to B1, the “dicamba decarboxylase activity relative to parent sequence” value was “displays an increase in dicamba decarboxylase activity”.

Regarding B2, the “dicamba decarboxylase activity relative to parent sequence” value is recorded as “displays an increase in dicamba decarboxylase activity”.

Still in this data set, the particulars now being: purified protein, dicamba substrate.
In the case of B1, the reaction products detected entry was “three major products (CO2, 4-chloro-3-methoxy phenol, and 2,5-DCP) detected”.

For the molecule B2, the reaction products detected result is “three major products (CO2, 4-chloro-3-methoxy phenol, and 2,5-DCP) detected”.

Turning to B3, the “other products (than 2,5-DCA)” value is “not detected”.

For B4, the “other products (than 2,5-DCA)” value is given as “not detected”.

For the molecule B5, the “other products (than 2,5-DCA)” value is “not detected”.

Turning to B6, the “other products (than 2,5-DCA)” value is “not detected”.

For B7, the “other products (than 2,5-DCA)” value is given as “not detected”.

The data set is the same for the next values; noted with them: statement of the description.
For B3, the dicamba decarboxylase activity result is listed as “shown herein to have dicamba decarboxylase activity”.

B8: the dicamba decarboxylase activity result is on record as “Neither of the native proteins have dicamba decarboxylase activity”.

Turning to B4, the dicamba decarboxylase activity result is reported as “shown herein to have dicamba decarboxylase activity”.

Regarding B5, the dicamba decarboxylase activity result is given as “shown herein to have dicamba decarboxylase activity”.

B6: the dicamba decarboxylase activity entry is “shown herein to have dicamba decarboxylase activity”.

Consider B9, for which the dicamba decarboxylase activity result is recorded as “Neither of the native proteins have dicamba decarboxylase activity”.

For B7, the dicamba decarboxylase activity result is “shown herein to have dicamba decarboxylase activity”.

A further data set can be described thus: GC/MS detection of decarboxylation product 2,5-DCA (toluene trapping or head space). The data set is classed as biochemical. The following applies: purified protein, dicamba substrate. As for the experimental part:
Alternatively, dicamba decarboxylase activity can be monitored by measuring decarboxylation products other than CO2 using product detection methods. The decarboxylation product of dicamba, 2,5-dichloro anisole or 2,5-DCA (FIG. 1C), is a volatile compound with a flash point of 21° C. To capture this volatile compound for detection, 140 ul of toluene solution is added on top of 1 ml reaction mixture to form a trapping layer in a 1.5 ml eppendorf tube. […] The reaction is kept still at room temperature overnight before being vortex mixed and centrifuged at 14,000 rpm for 15 minutes. The top toluene phase is carefully removed using a micropipette and transferred into a 12×32 mm polypropylene vial (Vial 11 mm) from MicroLiter Analytical Supplies, Inc. (catalog number 11-5300-100). The vial is sealed with Crimp seal (11 mm with FEP/Nat Rubber) from MicroLiter Analytical Supplies, Inc. (catalog number 11-0020A) using a E-Z Crimper™ 11 mm from Wheaton Inc. lul of the toluene mixture is taken from the sealed vials and injected in splitless mode into a GC/MS system for sample analysis (Agilent GC/MS system with a 6890A GC, a 5973N MSD and a CTC CombiPAL auto-sampler or with a 7890A GC, a 5975C MSD and an Agilent GC Sampler 80 auto-sampler). The GC parameters are: Agilent DB-5MS column (30 m length, 0.25 mm diameter, 0.25 um film) or equivalent; The GC inlet temperature, 250° C.; Carry gas, helium in constant flow mode (1.2 mL/min); The GC oven temperature program, initial temperature at 70° C. for 1 min, ramping to 200° C. at 15° C./min, and then ramping to 250° C. at 30° C./min. MS data acquisition is done in SIM (selected ion monitoring) mode, monitoring the positive ion at M/Z 176 for the molecular ion of […]. The solvent delay for MS acquisition is set at 4 min. Another method for detection of 2,5-DCA is a head-space GC/MS method. Briefly, reaction mixtures in 500 ul reaction volume are prepared in 1.5 ml 12×32 mm glass vials (Microliter Analytical Supplies, Cat#11-1200) for head space analysis. Glass vials are sealed with magnetic cap from MicroLiter Analytical Supplies, Inc. (catalog number 11-0030AT) using a E-Z Crimper™ 11 mm from Wheaton Industries Inc. The reaction is carried out at room temperature for various amount of time and stopped by heating at 95° C. for 5 min. The reaction vial is transferred to a agitator for incubation at 80° C. for 5 min at 500 rpm. With a syringe preheated at 80° C., 1000 uL of head space is injected with sample fill speed at 100 uL/sec. GC/MS parameters for headspace analysis are the same as for liquid sample analysis.
As for B3, the “minor decarboxylation product 2,5-DCA” value is on record as “detected”.

For B4, the “minor decarboxylation product 2,5-DCA” value is “detected”.

In the case of B5, the “minor decarboxylation product 2,5-DCA” value is on record as “detected”.

Consider B6, for which the “minor decarboxylation product 2,5-DCA” value is recorded as “detected”.

For B7, the “minor decarboxylation product 2,5-DCA” value is reported as “detected”.

A short description of a further data set: Saturation mutagenesis of SEQ ID NO:109: dicamba decarboxylation activity of point mutants (CO2 released), fold of backbone (Tables 7, 8, Megatable 1). Conditions: decarboxylation activity (CO2 released) of point mutant vs unmutated backbone protein; backbone SEQ ID NO: 109.
Regarding B1, the “Fold Activity” value turned out to be 1.2 fold.

B2: the “Fold Activity” value came to 1.4 fold.

Regarding B3, the “Fold Activity” value was found to be 1.8 fold.

Turning to B8, the “Fold Activity” value is given as 1.4 fold.

For the molecule B4, the “Fold Activity” value worked out at 1.4 fold.

On to B5, for which the “Fold Activity” value is recorded as 1.6 fold.

Consider B6, for which the “Fold Activity” value amounted to 1 fold.

In the case of B9, the “Fold Activity” value is 2.5 fold.

Take B7: the “Fold Activity” value stood at 1.3 fold.
